Here are results for one substance from patent US20210404962A1.

Test [1] concerns the target GFP1-10 (large fragment of GFP) (Aequorea victoria (Water jellyfish) (Mesonema victoria)) [GFP: P42212]. As to the kind of experiment: stopped-flow fluorescence reconstitution, pseudo-first order, one phase association fit; 50 nM GFP11, excess GFP1-10.
The target is the same in test [2]. As to the kind of experiment: fluorescence reconstitution kinetics, calculated from kobs at varied GFP11 concentrations.
Test [3] has the same target. Put plainly: fluorescence increase over time with varied GFP11 peptide and purified GFP1-10 at 3 mM, one site binding model.
Test [4] shares this target. As to the kind of experiment: fluorescence reconstitution, pseudo-first order, one phase association fit; GFP11 concentration not stated.
Test [5] shares this target. As to the kind of experiment: fluorescence reconstitution, pseudo-first order, one phase association fit.

As to “GFP11 peptide (chemically synthesized small fragment of split GFP; variant not stated)”, the figures for the kobs in test [1] and in test [4] were 0.003 s⁻¹ and 0.007 s⁻¹, respectively. Also, the kon (in general, the rate constant with which the complex forms) in test [2] is 760000 M⁻¹ s⁻¹. In addition, in test [3], the Kd (commonly the free concentration of one partner at which half of the binding sites on the other are occupied at equilibrium, for simple one-to-one binding) was determined as 481 µM. The half time in test [5] came to 95 s.
